Results taken from the supplement of paper PMC10567573.

B1: VPS39 (parent)
chain: QQVKCIITEEKVCMVCKKKIGNSA

Variants of: B1
Assay: protein stability index of a GFP-peptide fusion (GPS, HEK-293T) (PSI 1-6); higher = more stable
Settings: c terminus: a fixed tail appended
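Also: lentivirally expressed fusions sorted by FACS into six bins by GFP to DsRed ratio, PSI derived from sequencing read proportions per bin multiplied by bin number.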

Variant	protein stability index
QQVKCIMTEEKVCMVCKKKIGNSA [I7M]	3.54
QQVKCIRTEEKVCMVCKKKIGNSA [I7R]	2.86
QQVKCIKTEEKVCMVCKKKIGNSA [I7K]	2.9
QQVKCIYTEEKVCMVCKKKIGNSA [I7Y]	3.28
QQVKCITTEEKVCMVCKKKIGNSA [I7T]	2.69
QQVKCIDTEEKVCMVCKKKIGNSA [I7D]	3.49
QQVKCIVTEEKVCMVCKKKIGNSA [I7V]	3.4
QQVKCICTEEKVCMVCKKKIGNSA [I7C]	4.47
QQVKCINTEEKVCMVCKKKIGNSA [I7N]	2.84
QQVKCIWTEEKVCMVCKKKIGNSA [I7W]	2.46
QQVKCIGTEEKVCMVCKKKIGNSA [I7G]	2.77
QQVKCIHTEEKVCMVCKKKIGNSA [I7H]	4.39
QQVKCIPTEEKVCMVCKKKIGNSA [I7P]	4.23
QQVKCIETEEKVCMVCKKKIGNSA [I7E]	3.01
QQVKCIATEEKVCMVCKKKIGNSA [I7A]	3.38
QQVKCILTEEKVCMVCKKKIGNSA [I7L]	2.11
QQVKCIQTEEKVCMVCKKKIGNSA [I7Q]	2.76
QQVKCISTEEKVCMVCKKKIGNSA [I7S]	3.06
QQVKCIFTEEKVCMVCKKKIGNSA [I7F]	2.97
QQVKCIITEKKVCMVCKKKIGNSA [E10K]	2.54
QQVKCIITELKVCMVCKKKIGNSA [E10L]	1.47
QQVKCIITECKVCMVCKKKIGNSA [E10C]	3.05
QQVKCIITERKVCMVCKKKIGNSA [E10R]	2.23
QQVKCIITEHKVCMVCKKKIGNSA [E10H]	2.13

Variant	protein stability index
QQVKCIITESKVCMVCKKKIGNSA [E10S]	2.03
QQVKCIITEWKVCMVCKKKIGNSA [E10W]	2.44
QQVKCIITEQKVCMVCKKKIGNSA [E10Q]	2.29
QQVKCIITEDKVCMVCKKKIGNSA [E10D]	1.95
QQVKCIITEGKVCMVCKKKIGNSA [E10G]	2.41
QQVKCIITEMKVCMVCKKKIGNSA [E10M]	2.4
QQVKCIITEYKVCMVCKKKIGNSA [E10Y]	2.65
QQVKCIITEFKVCMVCKKKIGNSA [E10F]	1.97
QQVKCIITENKVCMVCKKKIGNSA [E10N]	2.01
QQVKCIITEIKVCMVCKKKIGNSA [E10I]	2.34
QQVKCIITETKVCMVCKKKIGNSA [E10T]	2.41
QQVKCIITEPKVCMVCKKKIGNSA [E10P]	2.69
QQVKCIITEAKVCMVCKKKIGNSA [E10A]	1.9
QQDKCIITEEKVCMVCKKKIGNSA [V3D]	3.92
QQHKCIITEEKVCMVCKKKIGNSA [V3H]	5.16
QQTKCIITEEKVCMVCKKKIGNSA [V3T]	2.82
QQWKCIITEEKVCMVCKKKIGNSA [V3W]	1.49
QQEKCIITEEKVCMVCKKKIGNSA [V3E]	3.47
QQKKCIITEEKVCMVCKKKIGNSA [V3K]	2.89
QQIKCIITEEKVCMVCKKKIGNSA [V3I]	2.38
QQNKCIITEEKVCMVCKKKIGNSA [V3N]	2.8
QQQKCIITEEKVCMVCKKKIGNSA [V3Q]	3.32
QQFKCIITEEKVCMVCKKKIGNSA [V3F]	1.89
QQGKCIITEEKVCMVCKKKIGNSA [V3G]	3.01

Variant	protein stability index
QQYKCIITEEKVCMVCKKKIGNSA [V3Y]	2.58
QQCKCIITEEKVCMVCKKKIGNSA [V3C]	4.46
QQRKCIITEEKVCMVCKKKIGNSA [V3R]	2.5
QQAKCIITEEKVCMVCKKKIGNSA [V3A]	2.81
QQPKCIITEEKVCMVCKKKIGNSA [V3P]	3.49
QQSKCIITEEKVCMVCKKKIGNSA [V3S]	3.17
QQLKCIITEEKVCMVCKKKIGNSA [V3L]	2.77
QQMKCIITEEKVCMVCKKKIGNSA [V3M]	2.8
QQVKCIITEEKCCMVCKKKIGNSA [V12C]	2.09
QQVKCIITEEKQCMVCKKKIGNSA [V12Q]	2.5
QQVKCIITEEKHCMVCKKKIGNSA [V12H]	2.64
QQVKCIITEEKGCMVCKKKIGNSA [V12G]	3.55
QQVKCIITEEKMCMVCKKKIGNSA [V12M]	2.81
QQVKCIITEEKICMVCKKKIGNSA [V12I]	3.06
QQVKCIITEEKPCMVCKKKIGNSA [V12P]	3.44
QQVKCIITEEKSCMVCKKKIGNSA [V12S]	3.41
QQVKCIITEEKFCMVCKKKIGNSA [V12F]	2.11
QQVKCIITEEKDCMVCKKKIGNSA [V12D]	3.87
QQVKCIITEEKRCMVCKKKIGNSA [V12R]	2.88
QQVKCIITEEKLCMVCKKKIGNSA [V12L]	2.86
QQVKCIITEEKTCMVCKKKIGNSA [V12T]	2.69
QQVKCIITEEKWCMVCKKKIGNSA [V12W]	1.98
QQVKCIITEEKECMVCKKKIGNSA [V12E]	3.96
QQVKCIITEEKKCMVCKKKIGNSA [V12K]	2.94

Variant	protein stability index
QQVKCIITEEKACMVCKKKIGNSA [V12A]	3.41
QQVKCIITEEKNCMVCKKKIGNSA [V12N]	3.68
QYVKCIITEEKVCMVCKKKIGNSA [Q2Y]	2.37
QVVKCIITEEKVCMVCKKKIGNSA [Q2V]	3.17
QWVKCIITEEKVCMVCKKKIGNSA [Q2W]	2.72
QQVVCIITEEKVCMVCKKKIGNSA [K4V]	2.19
QQVWCIITEEKVCMVCKKKIGNSA [K4W]	2.25
QQVICIITEEKVCMVCKKKIGNSA [K4I]	1.19
QQVTCIITEEKVCMVCKKKIGNSA [K4T]	2.44
QQVLCIITEEKVCMVCKKKIGNSA [K4L]	1.77
QQVQCIITEEKVCMVCKKKIGNSA [K4Q]	2.77
QQVSCIITEEKVCMVCKKKIGNSA [K4S]	2.22
QQVGCIITEEKVCMVCKKKIGNSA [K4G]	2.81
QQVCCIITEEKVCMVCKKKIGNSA [K4C]	3.6
QQVMCIITEEKVCMVCKKKIGNSA [K4M]	1.83
QQVDCIITEEKVCMVCKKKIGNSA [K4D]	2.68
QQVPCIITEEKVCMVCKKKIGNSA [K4P]	3.12
QQVNCIITEEKVCMVCKKKIGNSA [K4N]	2.83
QQVRCIITEEKVCMVCKKKIGNSA [K4R]	2.53
QQVHCIITEEKVCMVCKKKIGNSA [K4H]	2.44
QQVYCIITEEKVCMVCKKKIGNSA [K4Y]	1.42
QQVFCIITEEKVCMVCKKKIGNSA [K4F]	1.42
QQVECIITEEKVCMVCKKKIGNSA [K4E]	3.28
QQVACIITEEKVCMVCKKKIGNSA [K4A]	2.72

Variant	protein stability index
QQVKCIITEEVVCMVCKKKIGNSA [K11V]	2.39
QQVKCIITEEGVCMVCKKKIGNSA [K11G]	2.35
QQVKCIITEETVCMVCKKKIGNSA [K11T]	2.55
QQVKCIITEEAVCMVCKKKIGNSA [K11A]	3.64
QQVKCIITEELVCMVCKKKIGNSA [K11L]	1.87
QQVKCIITEEWVCMVCKKKIGNSA [K11W]	2.08
QQVKCIITEEHVCMVCKKKIGNSA [K11H]	3.3
QQVKCIITEECVCMVCKKKIGNSA [K11C]	4.08
QQVKCIITEESVCMVCKKKIGNSA [K11S]	2.9
QQVKCIITEEEVCMVCKKKIGNSA [K11E]	2.87
QQVKCIITEEDVCMVCKKKIGNSA [K11D]	2.52
QQVKCIITEEMVCMVCKKKIGNSA [K11M]	1.8
QQVKCIITEEPVCMVCKKKIGNSA [K11P]	3.15
QQVKCIITEENVCMVCKKKIGNSA [K11N]	2.89
QQVKCIITEEFVCMVCKKKIGNSA [K11F]	1.75
QQVKCIITEERVCMVCKKKIGNSA [K11R]	2.9
QQVKCIITEEIVCMVCKKKIGNSA [K11I]	2.44
QQVKCIITEEYVCMVCKKKIGNSA [K11Y]	1.77
QQVKCIITEEQVCMVCKKKIGNSA [K11Q]	2.84
QQVKCKITEEKVCMVCKKKIGNSA [I6K]	3.46
QQVKCWITEEKVCMVCKKKIGNSA [I6W]	1.75
QQVKCRITEEKVCMVCKKKIGNSA [I6R]	2.6
QQVKCHITEEKVCMVCKKKIGNSA [I6H]	3.47
QQVKCDITEEKVCMVCKKKIGNSA [I6D]	3.82

Variant	protein stability index
QQVKCPITEEKVCMVCKKKIGNSA [I6P]	4.07
QQVKCYITEEKVCMVCKKKIGNSA [I6Y]	2.49
QQVKCFITEEKVCMVCKKKIGNSA [I6F]	2.6
QQVKCTITEEKVCMVCKKKIGNSA [I6T]	3.38
QQVKCEITEEKVCMVCKKKIGNSA [I6E]	3.96
QQVKCSITEEKVCMVCKKKIGNSA [I6S]	3.5
QQVKCAITEEKVCMVCKKKIGNSA [I6A]	2.67
QQVKCNITEEKVCMVCKKKIGNSA [I6N]	3.25
QQVKCLITEEKVCMVCKKKIGNSA [I6L]	2.45
QQVKCGITEEKVCMVCKKKIGNSA [I6G]	2.47
QQVKCMITEEKVCMVCKKKIGNSA [I6M]	2.93
QQVKCQITEEKVCMVCKKKIGNSA [I6Q]	3.13
QQVKCVITEEKVCMVCKKKIGNSA [I6V]	3.05
QQVKCCITEEKVCMVCKKKIGNSA [I6C]	3.34
QQVKCIITYEKVCMVCKKKIGNSA [E9Y]	1.9
QQVKCIITWEKVCMVCKKKIGNSA [E9W]	1.35
QQVKCIITIEKVCMVCKKKIGNSA [E9I]	1.81
QQVKCIITCEKVCMVCKKKIGNSA [E9C]	1.8
QQVKCIITFEKVCMVCKKKIGNSA [E9F]	2.94
QQVKCIITKEKVCMVCKKKIGNSA [E9K]	2.49
QQVKCIITVEKVCMVCKKKIGNSA [E9V]	1.95
QQVKCIITHEKVCMVCKKKIGNSA [E9H]	1.85
QQVKCIITLEKVCMVCKKKIGNSA [E9L]	1.73
QQVKCIITPEKVCMVCKKKIGNSA [E9P]	2.46

Variant	protein stability index
QQVKCIITAEKVCMVCKKKIGNSA [E9A]	2.22
QQVKCIITNEKVCMVCKKKIGNSA [E9N]	1.87
QQVKCIITTEKVCMVCKKKIGNSA [E9T]	2.08
QQVKCIITDEKVCMVCKKKIGNSA [E9D]	3.29
QQVKCIITQEKVCMVCKKKIGNSA [E9Q]	1.85
QQVKCIITSEKVCMVCKKKIGNSA [E9S]	3.77
QQVKCIITREKVCMVCKKKIGNSA [E9R]	1.54
QQVKCIITMEKVCMVCKKKIGNSA [E9M]	1.33
QQVKCIITGEKVCMVCKKKIGNSA [E9G]	2
QQVKFIITEEKVCMVCKKKIGNSA [C5F]	1.96
QQVKVIITEEKVCMVCKKKIGNSA [C5V]	2.22
QQVKNIITEEKVCMVCKKKIGNSA [C5N]	2.79
QQVKQIITEEKVCMVCKKKIGNSA [C5Q]	3.07
QQVKEIITEEKVCMVCKKKIGNSA [C5E]	3.75
QQVKMIITEEKVCMVCKKKIGNSA [C5M]	1.99
QQVKAIITEEKVCMVCKKKIGNSA [C5A]	3.02
QQVKKIITEEKVCMVCKKKIGNSA [C5K]	3.61
QQVKHIITEEKVCMVCKKKIGNSA [C5H]	3.21
QQVKRIITEEKVCMVCKKKIGNSA [C5R]	3.48
QQVKTIITEEKVCMVCKKKIGNSA [C5T]	3.16
QQVKIIITEEKVCMVCKKKIGNSA [C5I]	2.24
QQVKGIITEEKVCMVCKKKIGNSA [C5G]	2.82
QQVKDIITEEKVCMVCKKKIGNSA [C5D]	3.86
QQVKPIITEEKVCMVCKKKIGNSA [C5P]	3.32

Variant	protein stability index
QQVKLIITEEKVCMVCKKKIGNSA [C5L]	2.34
QQVKYIITEEKVCMVCKKKIGNSA [C5Y]	2.69
QQVKWIITEEKVCMVCKKKIGNSA [C5W]	1.94
QQVKCIIPEEKVCMVCKKKIGNSA [T8P]	4.09
QQVKCIILEEKVCMVCKKKIGNSA [T8L]	2.16
QQVKCIIDEEKVCMVCKKKIGNSA [T8D]	3.08
QQVKCIIVEEKVCMVCKKKIGNSA [T8V]	2.12
QQVKCIICEEKVCMVCKKKIGNSA [T8C]	2.48
QQVKCIIIEEKVCMVCKKKIGNSA [T8I]	2.12
QQVKCIIKEEKVCMVCKKKIGNSA [T8K]	2.47
QQVKCIINEEKVCMVCKKKIGNSA [T8N]	2.9
QQVKCIIREEKVCMVCKKKIGNSA [T8R]	2.45
QQVKCIIAEEKVCMVCKKKIGNSA [T8A]	2.45
QQVKCIIQEEKVCMVCKKKIGNSA [T8Q]	3.34
QQVKCIIWEEKVCMVCKKKIGNSA [T8W]	2.87
QQVKCIIYEEKVCMVCKKKIGNSA [T8Y]	2.6
QQVKCIIHEEKVCMVCKKKIGNSA [T8H]	2.81
QQVKCIIEEEKVCMVCKKKIGNSA [T8E]	3.48
QQVKCIIGEEKVCMVCKKKIGNSA [T8G]	3.42
QQVKCIIFEEKVCMVCKKKIGNSA [T8F]	1.52
